In data set [1] the target is T1, MORC2 subset N (Homo sapiens, UniProt Q9Y6X9 1-1032, K704D;R707D;K713D;K716D;K721D;K722D).
T1 sequence: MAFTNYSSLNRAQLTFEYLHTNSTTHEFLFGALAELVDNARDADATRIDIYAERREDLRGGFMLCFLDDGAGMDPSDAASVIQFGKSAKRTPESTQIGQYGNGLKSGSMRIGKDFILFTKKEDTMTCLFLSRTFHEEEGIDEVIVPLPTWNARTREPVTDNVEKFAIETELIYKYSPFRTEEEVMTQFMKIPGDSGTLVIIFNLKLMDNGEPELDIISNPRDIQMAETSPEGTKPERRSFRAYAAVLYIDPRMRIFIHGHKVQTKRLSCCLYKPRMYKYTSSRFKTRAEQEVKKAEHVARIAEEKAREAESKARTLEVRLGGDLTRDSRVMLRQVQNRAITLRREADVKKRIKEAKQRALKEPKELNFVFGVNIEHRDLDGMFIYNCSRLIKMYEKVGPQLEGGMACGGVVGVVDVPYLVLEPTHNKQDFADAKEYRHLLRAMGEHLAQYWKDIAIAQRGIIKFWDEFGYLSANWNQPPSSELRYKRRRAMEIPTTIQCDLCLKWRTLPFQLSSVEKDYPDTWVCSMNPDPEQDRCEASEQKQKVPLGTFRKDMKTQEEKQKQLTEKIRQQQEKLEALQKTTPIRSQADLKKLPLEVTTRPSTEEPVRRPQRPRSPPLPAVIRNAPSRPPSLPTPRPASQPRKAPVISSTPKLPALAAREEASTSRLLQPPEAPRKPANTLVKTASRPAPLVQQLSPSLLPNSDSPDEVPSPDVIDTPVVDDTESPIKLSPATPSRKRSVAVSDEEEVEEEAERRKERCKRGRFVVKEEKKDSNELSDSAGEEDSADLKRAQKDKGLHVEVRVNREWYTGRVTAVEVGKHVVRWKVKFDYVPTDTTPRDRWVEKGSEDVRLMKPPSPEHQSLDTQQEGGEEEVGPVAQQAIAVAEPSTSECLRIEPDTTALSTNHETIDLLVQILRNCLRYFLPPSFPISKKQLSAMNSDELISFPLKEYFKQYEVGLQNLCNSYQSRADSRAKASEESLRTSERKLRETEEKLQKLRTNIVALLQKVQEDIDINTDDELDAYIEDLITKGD
As to the kind of experiment: fluorescence anisotropy; apo; FA/EMSA: 50 mM NaCl, 3 mM MgCl2, 20 mM Na-HEPES pH 7.4, 1 mM TCEP, 10% glycerol, 0.025 mM ZnCl2, 50 ug/ml BSA, room temperature; 1 nM nucleic acid (FA) or 20 nM DNA (EMSA). The following applies: protein: recombinant; tags: tag removed by TEV; chain copies: 2; label: 5'-6-FAM; blunt.

The target of data set [2] is T2, MORC2 dephosphorylated (wild-type) (Homo sapiens, UniProt Q9Y6X9 1-1032).
T2 sequence: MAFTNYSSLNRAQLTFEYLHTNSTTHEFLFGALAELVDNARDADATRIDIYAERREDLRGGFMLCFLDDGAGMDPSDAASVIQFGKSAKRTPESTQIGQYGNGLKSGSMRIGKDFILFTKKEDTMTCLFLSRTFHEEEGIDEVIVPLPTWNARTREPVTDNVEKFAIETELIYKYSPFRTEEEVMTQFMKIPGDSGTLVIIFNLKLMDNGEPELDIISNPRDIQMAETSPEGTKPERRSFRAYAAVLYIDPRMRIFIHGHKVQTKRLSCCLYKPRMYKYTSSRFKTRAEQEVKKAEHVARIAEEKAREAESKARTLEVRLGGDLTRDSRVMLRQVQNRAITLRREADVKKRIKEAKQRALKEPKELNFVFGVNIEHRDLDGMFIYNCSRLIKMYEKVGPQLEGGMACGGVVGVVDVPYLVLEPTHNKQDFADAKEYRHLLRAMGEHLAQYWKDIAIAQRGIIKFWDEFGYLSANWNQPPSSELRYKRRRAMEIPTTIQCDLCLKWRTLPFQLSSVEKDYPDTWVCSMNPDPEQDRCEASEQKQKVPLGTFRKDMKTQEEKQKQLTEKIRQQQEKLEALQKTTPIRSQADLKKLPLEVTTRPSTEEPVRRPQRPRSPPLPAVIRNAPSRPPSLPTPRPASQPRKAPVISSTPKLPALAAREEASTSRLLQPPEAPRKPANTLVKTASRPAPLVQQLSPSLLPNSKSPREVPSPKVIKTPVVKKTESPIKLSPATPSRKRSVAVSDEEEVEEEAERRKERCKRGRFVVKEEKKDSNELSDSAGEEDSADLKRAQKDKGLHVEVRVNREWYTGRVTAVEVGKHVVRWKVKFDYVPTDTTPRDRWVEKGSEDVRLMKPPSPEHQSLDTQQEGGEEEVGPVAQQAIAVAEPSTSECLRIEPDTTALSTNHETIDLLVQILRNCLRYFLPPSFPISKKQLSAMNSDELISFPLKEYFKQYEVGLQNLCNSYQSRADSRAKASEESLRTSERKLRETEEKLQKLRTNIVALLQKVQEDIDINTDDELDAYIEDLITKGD
The data set is described as above. As to conditions: protein: recombinant; tags: tag removed by TEV; chain copies: 2; label: 5'-6-FAM; blunt.

B1: Random 35mer dsDNA (dsDNA)
DNA 1: ATAGGGTCCATCAGAATTCGGATGAACTCGGTGTG
DNA 2: CACACCGAGTTCATCCGAATTCTGATGGACCCTAT
The Kd is a measure of binding affinity in units of concentration. On to B1, for which the Kd in data set [1] came out at 90 ± 20 nM; in data set [2], 17 ± 4 nM.
